For one assay, the target named is HLA-A*02 (Homo sapiens, UniProt P04439, D140Y/D185E/D98H/E176V/E277Q/G131W/G231S/I119V/I121R/I166T/I218V/N151K/N90K/P208A/P217A/Q86G/Q94H/R138H/R169H). Kind of assay: MHC binding assay (UV-ligand exchange, beta2m ELISA), HLA-A*02. The settings on record: MHC class I binding score, peptide exchange yield. An excerpt: Candidate peptides for T cell based therapies according to the present invention were further tested for their MHC binding capacity (affinity). The individual peptide-MHC complexes were produced by UV-ligand exchange, where a UV-sensitive peptide is cleaved upon UV-irradiation, and exchanged with the peptide of interest as analyzed. Only peptide candidates that can effectively bind and stabilize the peptide-receptive MHC molecules prevent dissociation of the MHC complexes. To determine the yield of the exchange reaction, an ELISA was performed based on the detection of the light chain ([…] of stabilized MHC complexes. The assay was performed as generally described in Rodenko et al. (Rodenko et al., 2006).
96 well MAXISorp plates (NUNC) were coated over night with 2 ug/ml streptavidin in PBS at room temperature, washed 4× and blocked for 1 h at 37° C. in 2% BSA containing blocking buffer. Refolded HLA-A*02:01/MLA-001 monomers served as standards, covering the range of 15-500 ng/ml. Peptide-MHC monomers of the UV-exchange reaction were diluted 100 fold in blocking buffer. Samples were incubated for 1 h at 37° C., washed four times, incubated with 2 ug/ml HRP conjugated anti-β2m for 1 h at 37° C., washed again and detected with TMB solution that is stopped with […]. Absorption was measured at 450 nm. Candidate peptides that show a high exchange yield (preferably higher than 50%, most preferred higher than 75%) are generally preferred for a generation and production of antibodies or fragments thereof, and/or T cell receptors or fragments thereof, as they show sufficient avidity to the MHC molecules and prevent dissociation of the MHC complexes.

The next assay has as its system CD8+ T cells. Description: In vitro immunogenicity: T-cell priming with aAPCs loaded with peptide/MHC complexes and anti-CD28 antibody, pMHC multimer readout. It is filed as cell-based, human. To be noted: in vitro immunogenicity of HLA class I peptides; peptide-specific multimer+ wells after aAPC priming of CD8+ T cells. How it is done:
In an aspect, the peptides are pre-screened for immunogenicity before being included in the warehouse. By way of example, and not limitation, the immunogenicity of the peptides included in the warehouse is determined by a method comprising in vitro T-cell priming through repeated stimulations of CD8+ T cells from healthy donors with artificial antigen presenting cells loaded with peptide/MHC complexes and anti-CD28 antibody.
In order to obtain information regarding the immunogenicity of the TUMAPs of the present invention, the inventors performed investigations using an in vitro T-cell priming assay based on repeated stimulations of CD8+ T cells with artificial antigen presenting cells (aAPCs) loaded with peptide/MHC complexes and anti-CD28 antibody.
In order to perform in vitro stimulations by artificial antigen presenting cells loaded with peptide-MHC complex (pMHC) and anti-CD28 antibody, the inventors first isolated CD8+ T cells from fresh HLA-A*02 leukapheresis products via positive selection using CD8 microbeads (Miltenyi Biotec, Bergisch-Gladbach, Germany) of healthy donors obtained from the University clinics Mannheim, Germany, after informed consent.
PBMCs and isolated CD8+ lymphocytes were incubated in T-cell medium (TCM) until use consisting of RPMI-Glutamax (Invitrogen, Karlsruhe, Germany) supplemented with 10% heat inactivated human AB serum (PAN-Biotech, Aidenbach, Germany), 100 U/ml Penicillin/100 μg/ml Streptomycin (Cambrex, Cologne, Germany), 1 mM sodium pyruvate (CC Pro, Oberdorla, Germany), 20 μg/ml Gentamycin (Cambrex). 2.5 ng/ml IL7 (PromoCell, Heidelberg, Germany) and 10 U/ml IL-2 (Novartis Pharma, Nurnberg, Germany) were also added to the TCM at this step.
Generation of pMHC/anti-CD28 coated beads, T-cell stimulations and readout was performed in a highly defined in vitro system using four different pMHC molecules per stimulation condition and 8 different pMHC molecules per readout condition.
The purified co-stimulatory mouse IgG2a anti human CD28 Ab 9.3 (Jung et al., 1987) was chemically biotinylated using Sulfo-N-hydroxysuccinimidobiotin as recommended by the manufacturer (Perbio, Bonn, Germany). Beads used were 5.6 μm diameter streptavidin coated polystyrene particles (Bangs Laboratories, Illinois, USA).
pMHC used for positive and negative control stimulations were A*0201/MLA-001 (peptide […] (SEQ ID NO. 303) from modified Melan-A/MART-1) and A*0201/DDX5-001 ([…] from DDX5, SEQ ID NO. 304), respectively.
800.000 beads/200 μl were coated in 96-well plates in the presence of 4×12.5 ng different biotin-pMHC, washed and 600 ng biotin anti-CD28 were added subsequently in a volume of 200 μl. Stimulations were initiated in 96-well plates by co-incubating […] CD8+ T cells with 2×10^5 washed coated beads in 200 μl TCM supplemented with 5 ng/ml IL-12 (PromoCell) for 3 days at 37° C. Half of the medium was then exchanged by fresh TCM supplemented with 80 U/ml IL-2 and incubating was continued for 4 days at 37° C. This stimulation cycle was performed for a total of three times. For the pMHC multimer readout using 8 different pMHC molecules per condition, a twodimensional combinatorial coding approach was used as previously described (Andersen et al., 2012) with minor modifications encompassing coupling to 5 different fluorochromes. Finally, multimeric analyses were performed by staining the cells with Live/dead near IR dye (Invitrogen, Karlsruhe, Germany), CD8-FITC antibody clone SK1 (BD, Heidelberg, Germany) and fluorescent pMHC multimers. For analysis, a BD LSRII SORP cytometer equipped with appropriate lasers and filters was used. Peptide specific cells were calculated as percentage of total CD8+ cells. Evaluation of multimeric analysis was done using the FlowJo software (Tree Star, Oregon, USA). In vitro priming of specific multimer+ CD8+ lymphocytes was detected by comparing to negative control stimulations.

In the case of “12 (GLLPLLHRA; listed as Homo sapiens) [compound 12]”, in the assay with HLA-A*02, the Peptide exchange entry is “++++ (>=75% = ++++)”. Besides, the “Wells positive [%]” value in the assay with CD8+ T cells was “++++ (>=70% = ++++)”.
On to “249 (GLCERLVSL; listed as Homo sapiens) [compound 249]”, for which the Peptide exchange entry with HLA-A*02 is “++++ (>=75% = ++++)”. Moreover, the “Wells positive [%]” value in the assay on CD8+ T cells was “+ (<20% = +)”.
Take “95 (GLLGSLFFL; listed as Homo sapiens) [compound 95]”: the Peptide exchange result with HLA-A*02 was “++++ (>=75% = ++++)”.
Regarding “82 (FIFDEAEKL; listed as Homo sapiens) [compound 82]”, the Peptide exchange result with HLA-A*02 was “+ (<20% = +)”.
With “4 (KLMPGTYTL; listed as Homo sapiens) [compound 4]”, in the assay with HLA-A*02, the Peptide exchange result is given as “++++ (>=75% = ++++)”. Also, in the assay on CD8+ T cells, the “Wells positive [%]” value is reported as “+ (<20% = +)”.
With “92 (GLLFSLRSV; listed as Homo sapiens) [compound 92]”, the Peptide exchange entry with HLA-A*02 is recorded as “++++ (>=75% = ++++)”.
As to “258 (LLSERFINV; listed as Homo sapiens) [compound 258]”, the Peptide exchange result with HLA-A*02 is on record as “++++ (>=75% = ++++)”.
Consider “84 (ALCPRIHEV; listed as Homo sapiens) [compound 84]”, for which, in the assay with HLA-A*02, the Peptide exchange result was “++++ (>=75% = ++++)”.

These data come from patent publication US20170189507A1, “NOVEL PEPTIDES AND COMBINATION OF PEPTIDES FOR USE IN IMMUNOTHERAPY AGAINST VARIOUS CANCERS” (immatics biotechnologies GmbH, priority 2015, published 2017).
